Data: the Immune Epitope Database (IEDB)

Key:
HLA-B*53:01 = assay: IEDB peptide-MHC binding, purified MHC/competitive/radioactivity; filed as Kd, often an IC50 or EC50 that approximates it; ≥ and ≤ were set here for values at or beyond the usual limits of such assays; conditions: source organism: Dengue virus 3 Martinique/1243/1999
HLA-B*51:01 = assay: IEDB peptide-MHC binding, purified MHC/direct/fluorescence; filed as Kd, often an IC50 or EC50 that approximates it; ≥ and ≤ were set here for values at or beyond the usual limits of such assays
HLA-A*24:02 = assay: IEDB peptide-MHC binding, purified MHC/competitive/fluorescence; ≥ and ≤ were set here for values at or beyond the usual limits of such assays
HLA-A*02:01 [1] = assay: as above
HLA-A*01:01 [2] = assay: as above
HLA-A*11:01 = assay: IEDB peptide-MHC binding, purified MHC/direct/fluorescence; filed as Kd, often an IC50 or EC50 that approximates it; ≥ and ≤ were set here for values at or beyond the usual limits of such assays; conditions: source organism: Mycobacterium tuberculosis
HLA-B*48:01 = assay: as above; conditions: source organism: Mycobacterium tuberculosis
HLA-B*58:01 = assay: as above
HLA-B*18:01 = assay: as above; conditions: source organism: Mycobacterium tuberculosis
HLA-A*31:01 = assay: as above
HLA-A*69:01 = assay: as above; conditions: source organism: Mycobacterium tuberculosis
HLA-B*57:01 = assay: as above
HLA-A*26:01 = assay: as above; conditions: source organism: Mycobacterium tuberculosis str. Haarlem
HLA-A*03:01 = assay: as above
HLA-B*15:17 = assay: as above; conditions: source organism: Mycobacterium tuberculosis
HLA-A*02:01 [3] = assay: as above; conditions: source organism: Mycobacterium tuberculosis
HLA-B*46:01 = assay: as above; conditions: source organism: Mycobacterium tuberculosis
HLA-B*15:09 = assay: as above; conditions: source organism: Mycobacterium tuberculosis str. Haarlem
HLA-B*40:01 = assay: as above; conditions: source organism: Mycobacterium tuberculosis
HLA-B*27:05 = assay: as above
HLA-B*39:01 [4] = assay: IEDB peptide-MHC binding, purified MHC/competitive/fluorescence; filed as Kd, often an IC50 or EC50 that approximates it; ≥ and ≤ were set here for values at or beyond the usual limits of such assays; conditions: source organism: Mycobacterium tuberculosis variant bovis BCG str. Pasteur 1173P2
HLA-B*15:42 = assay: as above; conditions: source organism: Mycobacterium tuberculosis variant bovis BCG str. Pasteur 1173P2
HLA-B*45:06 = assay: as above; conditions: source organism: Mycobacterium tuberculosis variant bovis BCG str. Pasteur 1173P2
HLA-A*01:01 [5] = assay: as above; conditions: source organism: Mycobacterium tuberculosis variant bovis BCG str. Pasteur 1173P2
HLA-B*83:01 = assay: as above; conditions: source organism: Mycobacterium tuberculosis variant bovis BCG str. Pasteur 1173P2
HLA-B*15:01 [6] = assay: as above; conditions: source organism: Mycobacterium tuberculosis variant bovis BCG str. Pasteur 1173P2
HLA-B*39:01 [7] = assay: IEDB peptide-MHC binding, purified MHC/direct/fluorescence; filed as Kd, often an IC50 or EC50 that approximates it; ≥ and ≤ were set here for values at or beyond the usual limits of such assays
HLA-B*07:02 = assay: as above
HLA-B*44:02 = assay: as above
HLA-A*01:01 [8] = assay: as above
HLA-B*15:01 [9] = assay: as above; conditions: source organism: Mycobacterium tuberculosis
HLA-B*15:01 [10] = assay: IEDB peptide-MHC binding, purified MHC/competitive/fluorescence; ≥ and ≤ were set here for values at or beyond the usual limits of such assays
HLA-A*32:01 = assay: IEDB peptide-MHC binding, purified MHC/competitive/radioactivity; filed as Kd, often an IC50 or EC50 that approximates it; ≥ and ≤ were set here for values at or beyond the usual limits of such assays; conditions: source organism: Vaccinia virus WR
[11] = source organism: Zaire ebolavirus
[12] = source organism: Mycobacterium tuberculosis
[13] = source organism: Mammarenavirus lassaense
[14] = source organism: Vaccinia virus WR

HPGFTILAL showed a Kd (HLA-B*53:01) of 0.0003 µM and a Kd (HLA-B*51:01; source organism: dengue virus type 3) of at least 20 µM.

TLDGQQFYW gave an IC50 (HLA-A*24:02; [11]) of 0.182 µM, an IC50 (HLA-A*02:01 [1]; [11]) of 2.22 µM and an IC50 (HLA-A*01:01 [2]; [11]) of 35.3 µM.

In the case of SPGRKNGSF, the Kd (HLA-B*51:01; source organism: Yellow fever virus 1899/81) is reported as at least 20 µM.

HKDGAFFLY was tested, and the IC50 (HLA-A*01:01 [2]; source organism: Sudan ebolavirus) was 6.35 µM.

RPRCAYLPF showed a Kd (HLA-A*11:01) of at least 20 µM, a Kd (HLA-B*48:01) of at least 20 µM and a Kd (HLA-B*58:01; [12]) of at least 20 µM. For the same sequence, the Kd (HLA-B*18:01) was 5.59 µM, the Kd (HLA-A*31:01; [12]) was at least 20 µM and the Kd (HLA-A*69:01) was at least 20 µM. The Kd (HLA-B*51:01; [12]) was at least 20 µM, the Kd (HLA-B*57:01; [12]) was at least 20 µM and the Kd (HLA-A*26:01) was 2.6 µM. The Kd (HLA-A*03:01; [12]) was at least 20 µM, the Kd (HLA-B*15:17) was 0.197 µM and the Kd (HLA-A*02:01 [3]) was at least 20 µM. The Kd (HLA-B*46:01) was 5.59 µM, the Kd (HLA-B*15:09) was at least 20 µM and the Kd (HLA-B*40:01) was at least 20 µM. For the same sequence, the Kd (HLA-B*27:05; [12]) was at least 20 µM, the Kd (HLA-B*39:01 [4]) was at least 20 µM and the Kd (HLA-B*15:42) was at least 5 µM. For the same sequence, the Kd (HLA-B*45:06) was at least 5 µM, the Kd (HLA-A*01:01 [5]) was at least 20 µM and the Kd (HLA-B*83:01) was 0.0317 µM. The Kd (HLA-B*15:01 [6]) was 2.17 µM.

Work on NQFGTMPSL yielded a Kd (HLA-B*58:01; [13]) of at least 20 µM, a Kd (HLA-B*39:01 [7]; [13]) of 0.0011 µM and a Kd (HLA-A*31:01; [13]) of at least 20 µM. The Kd (HLA-B*57:01; [13]) was at least 20 µM, the Kd (HLA-A*03:01; [13]) was at least 20 µM and the Kd (HLA-B*07:02; [13]) was at least 20 µM. It also gave a Kd (HLA-B*44:02; [13]) of at least 20 µM, a Kd (HLA-A*01:01 [8]; [13]) of at least 20 µM and a Kd (HLA-B*27:05; [13]) of at least 20 µM.

For MRMGDLHLL, the Kd (HLA-B*39:01 [7]; source organism: Influenza A virus (A/swine/Italy/1850/1977(H3N2))) was 0.0396 µM.

For FHVNPAFVL, the Kd (HLA-A*11:01) was at least 20 µM, the Kd (HLA-B*58:01; [12]) was at least 20 µM and the Kd (HLA-B*39:01 [7]; [12]) was 0.014 µM. The Kd (HLA-A*31:01; [12]) was at least 20 µM, the Kd (HLA-B*57:01; [12]) was at least 20 µM and the Kd (HLA-A*03:01; [12]) was at least 20 µM. The Kd (HLA-B*07:02; [12]) was at least 20 µM, the Kd (HLA-B*46:01) was at least 20 µM and the Kd (HLA-B*44:02; [12]) was at least 20 µM. The Kd (HLA-A*01:01 [8]; [12]) was at least 20 µM, the Kd (HLA-B*15:01 [9]) was at least 20 µM and the Kd (HLA-B*27:05; [12]) was at least 20 µM.

For FSTSDGKEY, the IC50 (HLA-A*01:01 [2]; [11]) was 14.3 µM and the IC50 (HLA-B*15:01 [10]; [11]) was 11.6 µM.

Sequence KMDNGTLEF has a Kd (HLA-A*32:01) of 0.000923 µM, an IC50 (HLA-A*24:02; [14]) of 1.06 µM and an IC50 (HLA-A*02:01 [1]; [14]) of 6.36 µM. For the same sequence, the IC50 (HLA-A*01:01 [2]; [14]) was 15 µM and the IC50 (HLA-B*15:01 [10]; [14]) was 24.4 µM.
